Target: T1, FlAsH-tagged Met1-diUb (UniProt P0CG48 1-76; P0CG48 1-71, Lumio Green (FlAsH) on the C-terminal WCCPGCC motif)
T1 construct: ubiquitin, distal moiety, residues 1-76, joined by Gly76 in a peptide bond to Met1 of the proximal moiety; ubiquitin, proximal moiety; a C-terminal WCCPGCC motif replaces aa 72-76, so that residues 1-71 are left; Construct described in Ye et al., 2011; Chain: Ub(1-76)-Ub(1-71)-WCCPGCC; also called FlAsH-tagged Met1-diUb WT; Met1-linked diUb; source: expressed from pET17 plasmid, purified as …
Assay: fluorescence polarisation; FlAsH-tagged diUb fixed (10 μl of 100 nM plus 10 μl protein), OTULIN C129A variants serially diluted; 20 mM Tris pH 7.4, 100 mM NaCl, 5 mM β-mercaptoethanol, 0.1 mg/ml BSA; one-site binding model; triplicate
Details: both partners purified

Binder | Kd [nM] | binding result
OTULINcat C129A (aa 80–352) (domain or fragment, human, UniProt Q96BN8 80-352, looked up, FAM105B/OTULIN, human, catalytic OTU domain aa 80-352, catalytic Cys129 changed to Ala; Expressed from pOPIN-F. PDB 3ZNV is the wild-type parent of the same limits; also called OTULIN (80–352) C129A; OTULIN 80-352 C129A; source: E. coli Rosetta2 (DE3) pLacI, purified (Ni2+ resin, 3C protease, anion exchange, SEC)) LSVAPEMDIMDYCKKEWRGNTQKATCMKMGYEEVSQKFTSIRRVRGDNYAALRATLFQAMSQAVGLPPWLQDPELMLLPEKLISKYNWIKQWKLGLKFDGKNEDLVDKIKESLTLLRKKWAGLAEMRTAEARQIACDELFTNEAEEYSLYEAVKFLMLNRAIELYNDKEKGKEVPFFSVLLFARDTSNDPGQLLRNHLNQVGHTGGLEQVEMFLLAYAVRHTIQVYRLSKYNTEEFITVYPTDPPKDWPVVTLIAEDDRHYNIPVRVCEETSL | 196 | –
OTULIN C129A TQK100-102AAA (enzyme, human, UniProt Q96BN8 1-352, looked up, also called triple mutant TQK100-102 to AAA; source: E. coli Rosetta2 (DE3) pLacI, purified (Ni2+ resin, 3C protease, SEC)) MSRGTMPQPEAWPGASCAETPAREAAATARDGGKAAASGQPRPEMQCPAEHEEDMYRAADEIEKEKELLIHERGASEPRLSVAPEMDIMDYCKKEWRGNAAAATCMKMGYEEVSQKFTSIRRVRGDNYAALRATLFQAMSQAVGLPPWLQDPELMLLPEKLISKYNWIKQWKLGLKFDGKNEDLVDKIKESLTLLRKKWAGLAEMRTAEARQIACDELFTNEAEEYSLYEAVKFLMLNRAIELYNDKEKGKEVPFFSVLLFARDTSNDPGQLLRNHLNQVGHTGGLEQVEMFLLAYAVRHTIQVYRLSKYNTEEFITVYPTDPPKDWPVVTLIAEDDRHYNIPVRVCEETSL | – | binds

From article PMC3690481, “OTULIN Antagonizes LUBAC Signaling by Specifically Hydrolyzing Met1-Linked Polyubiquitin” (Cell, 2013)
